Data from paper PMC5817926 (2018).

Biological target: ubiquitin polyprotein composed of nine identical repeats (Ubi)9 (UniProt P0CG48 1-76)
Assay: extended unfolded state at 170 pN force (single-molecule force spectroscopy)

Sequence of ubiquitin polyprotein composed of nine identical repeats (Ubi)9 (P0CG48 1-684): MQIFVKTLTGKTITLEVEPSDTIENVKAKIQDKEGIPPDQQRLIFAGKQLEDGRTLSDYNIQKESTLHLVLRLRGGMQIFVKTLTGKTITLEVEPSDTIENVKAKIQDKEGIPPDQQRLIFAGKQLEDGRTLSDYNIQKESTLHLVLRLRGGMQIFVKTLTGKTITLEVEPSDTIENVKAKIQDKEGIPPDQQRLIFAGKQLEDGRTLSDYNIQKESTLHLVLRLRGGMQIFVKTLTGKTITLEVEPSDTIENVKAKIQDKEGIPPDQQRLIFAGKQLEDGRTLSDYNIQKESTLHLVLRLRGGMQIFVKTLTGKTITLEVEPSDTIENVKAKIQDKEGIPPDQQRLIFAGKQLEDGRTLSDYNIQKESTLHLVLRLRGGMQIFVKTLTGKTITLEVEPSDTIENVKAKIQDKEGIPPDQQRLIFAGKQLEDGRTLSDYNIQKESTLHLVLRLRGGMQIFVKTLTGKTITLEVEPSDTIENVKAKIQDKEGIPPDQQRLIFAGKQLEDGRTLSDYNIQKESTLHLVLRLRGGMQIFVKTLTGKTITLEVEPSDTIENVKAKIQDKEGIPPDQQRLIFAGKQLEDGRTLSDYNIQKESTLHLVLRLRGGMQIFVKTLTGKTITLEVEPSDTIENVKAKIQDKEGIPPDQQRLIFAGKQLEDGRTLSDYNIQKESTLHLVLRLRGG

B1: DnaJ (Hsp40) (natural protein)
chain: MAKQDYYEILGVSKTAEEREIRKAYKRLAMKYHPDRNQGDKEAEAKFKEIKEAYEVLTDSQKRAAYDQYGHAAFEQGGMGGGGFGGGADFSDIFGDVFGDIFGGGRGRQRAARGADLRYNMELTLEEAVRGVTKEIRIPTLEECDVCHGSGAKPGTQPQTCPTCHGSGQVQMRQGFFAVQQTCPHCQGRGTLIKDPCNKCHGHGRVERSKTLSVKIPAGVDTGDRIRLAGEGEAGEHGAPAGDLYVQVQVKQHPIFEREGNNLYCEVPINFAMAALGGEIEVPTLDGRVKLKVPGETQTGKLFRMRGKGVKSVRGGAQGDLLCRVVVETPVGLNERQKQLLQELQESFGGPTGEHNSPRSKSFFDGVKKFFDDLTR
koff: 0.0458 s⁻¹
